The text below walks through data of patent US20240053349A1.

B1: Fol-hshta-Gly-Phe-Lys(AO) (compound #3303) (peptide)
peptide: folate-[dH][dS][dH][dT][dA]GFK(AO)
modifications: triazole (positions not given here); not fully specified; printed as Fol-hshta-Gly-Phe-Lys(AO); also: triazole macrocycle via Pra and Az4, places not given here
B2: Fol-hshta-PEG3-Lys(FB) (compound #2) (peptide)
peptide: folate-[dH][dS][dH][dT][dA][PEG3′]K([AO-FB])
modifications: triazole (positions not given here); numbers in words are those of the source; also: triazole macrocycle via Pra and Az4, places not given here
B3: folate-hshta Tz heterobiligand (peptide)
peptide: Biotin-[dH][dS][dH][dT][dA]
modifications: triazole (positions not given here); also: triazole macrocycle via Pra and Az4, places not given here, folate joined through PEG linker and triazole, site not given here
B4: deryt (SEQ ID NO:20) PCC alone (peptide)
peptide: [dD][dE][dR][dY][dT]
modifications: triazole (positions not given here); also: flanked by Pra and Az4 joined by 1,2,3-triazole, sides not given here
B5: folate-kyeet Tz heterobiligand (peptide)
peptide: Biotin-[dK][dY][dE][dE][dT]
modifications: triazole (positions not given here); also: folate joined via PEG linker and triazole (Tz), site not placed, triazole macrocycle via Pra and Az4 flanking kyeet, not placed in chain
B6: Fol-hshta-PEG3-Lys(DOTA) (compound #1189) (peptide)
peptide: folate-[dH][dS][dH][dT][dA][PEG3′]K(DOTA)-OH
modifications: triazole (positions not given here); not fully specified; printed as folate-hshta-PEG3-Lys(DOTA); numbers in words are those of the source; also: triazole macrocycle via Pra and Az4, places not given here
B7: Folate-hshta-Lys(MPBA)-Gly-Phe-Lys(DOTA) (compound #6305) (peptide)
peptide: [dH][dS][dH][dT][dA]K(Butanoyl(4-(4-MePh)))GFK(DOTA)-OH
modifications: triazole (positions not given here); not fully specified (N-terminus); also: triazole macrocycle via Pra and Az4, places not given here
B8: Fol-hshta-Lys(4-MPBA)-Gly-Phe-Lys(PEG3-DOTA) (compound #3302) (peptide)
peptide: [dH][dS][dH][dT][dA]KGFK([PEG3′-DOTA])
modifications: triazole (positions not given here); not fully specified (residue 6, N-terminus); also: triazole macrocycle via Pra and Az4, places not given here
B9: Fol-hshta-PEG3-Gly-Phe-Lys(DOTA) (compound #6307) (peptide)
peptide: folate-[dH][dS][dH][dT][dA][PEG3′]GFK(DOTA)
modifications: triazole (positions not given here); numbers in words are those of the source; also: triazole macrocycle via Pra and Az4, places not given here
B10: Folate-hshta-PEG3-Lys(MPBA)-Lys(DOTA) (compound #2809) (peptide)
peptide: [dH][dS][dH][dT][dA][PEG3′]K(Butanoyl(4-(4-MePh)))K(DOTA)-OH
modifications: triazole (positions not given here); not fully specified (N-terminus); printed as folate-hshta-PEG3-Lys(MPBA)-Lys(DOTA); numbers in words are those of the source; also: triazole macrocycle via Pra and Az4, places not given here
B11: Folate-hshta-G-F-K(DOTA)-OH (Indi 7327, compound #7327) (peptide)
peptide: Folate-[dH][dS][dH][dT][dA]GFK(DOTA)-OH
modifications: not fully specified (bridges); printed as folate-hshta-Gly-Phe-Lys(DOTA); also: triazole macrocycle closed by Pra and Lys(N3)/Az4 flanking hshta, not in the given chain
B12: Folate-hshta-Lys(IPBA)-Gly-Phe-Lys(DOTA) (compound #1307) (peptide)
peptide: [dH][dS][dH][dT][dA]K(Butanoyl(4-(4-I-phenyl)))GFK(DOTA)
modifications: triazole (positions not given here); not fully specified (N-terminus); also: triazole macrocycle via Pra and Az4, places not given here
B13: Folate-hshta-Lys(IPBA)-M-V-Lys(DOTA) (compound #1306) (peptide)
peptide: folate-[dH][dS][dH][dT][dA]K(Butanoyl(4-(4-I-phenyl)))MVK(DOTA)-OH
modifications: triazole (positions not given here); not fully specified; also: triazole macrocycle via Pra and Az4, places not given here
B14: Folate-deryt heterobiligand (construct not specified) (peptide)
peptide: [dD][dE][dR][dY][dT]
modifications: triazole (positions not given here); also: triazole macrocycle via Pra and Az4, places not given here, folate conjugated, linker and site not given here
B15: Folate-PEG7-hshta (peptide)
peptide: {folate-PEG7′}-[dH][dS][dH][dT][dA]
modifications: triazole (positions not given here); also: triazole macrocycle via Pra and Az4, places not given here, biotin label, site not given here

Square brackets hold non-standard residues; d marks the D form. Primed or numbered codes have the meaning given here. Side chains are listed from the residue outwards. Ends that are not written are not given here. * marks the point of attachment. DOTA = O=C(O)CN1CCN(CC(=O)O)CCN(CC(=O)*)CCN(CC(=O)O)CC1; Biotin = O=C1N[C@H]2[C@H](CS[C@H]2CCCCC(=O)*)N1; Butanoyl(4-(4-I-phenyl)) = O=C(CCCc1ccc(I)cc1)*; Butanoyl(4-(4-MePh)) = Cc1ccc(CCCC(=O)*)cc1; FB = fluorobenzaldehyde oxime; Folate = pteroic acid on Glu; PEG3′ = PEG3 spacer; PEG7′ = PEG7 spacer; AO = aminooxy

The target of the first test is mouse plasma proteins (CD-1 mouse). In words: plasma protein binding; measured on the FB form.
B1 came in with a Plasma % Bound of 75.5%.

In turn, B2 yielded a Plasma % Bound of 20.2%.

The next test concerns the target human plasma proteins. Briefly: plasma protein binding; measured on the FB form.
As to B1, the Plasma % Bound turned out to be 81%.

On to B2, for which the Plasma % Bound is 43%.

Another test concerns the target FOLR1 human recombinant protein (human) (UniProt P15328). Briefly: ELISA on FOLR1. In general terms: An ELISA detects its analyte on a solid surface through an enzyme-linked reagent.
As usually defined, the EC50 is the concentration that produces a half-maximal response. Turning to B3, the EC50 worked out at 0.107 nM.

On to B4, for which the EC50 worked out at 10000 nM.

For B5, the EC50 was found to be 0.149 nM.

The next test has as its target mouse plasma proteins (CD-1 mouse). In words: plasma protein binding, dialysis 4 h at 37 C, 2 µM, LC-MS/MS.
B6 yielded a Plasma % Bound of 29.5%.

Regarding B7, the Plasma % Bound is 96.3%.

Regarding B8, the Plasma % Bound came out at 96.5%.

B9 had a Plasma % Bound of 40.6%.

B10 displayed a Plasma % Bound of 92.1%.

With B11, the Plasma % Bound amounted to 40.9%.

With B2, the Plasma % Bound was determined as 20.2%.

B12: the Plasma % Bound amounted to 99.6%.

For the molecule B13, the Plasma % Bound was 97.1%.

The next test addresses human plasma proteins. The test is described as above.
Molecule B6 yielded a Plasma % Bound of 46%.

In the case of B7, the Plasma % Bound amounted to 98.3%.

For B8, the Plasma % Bound was found to be 94.9%.

On to B9, for which the Plasma % Bound came to 41.3%.

Regarding B10, the Plasma % Bound was determined as 83.3%.

The molecule B11 came in with a Plasma % Bound of 40.3%.

B2 came in with a Plasma % Bound of 43%.

In the case of B12, the Plasma % Bound amounted to 99.5%.

The molecule B13 showed a Plasma % Bound of 97.3%.

The target of the next test is FOLR1 human recombinant protein (human) (UniProt P15328). Briefly: ELISA on FOLR1, linker screen.
FOLR1 human recombinant protein (human), sequence (P15328 25-233 limits assumed): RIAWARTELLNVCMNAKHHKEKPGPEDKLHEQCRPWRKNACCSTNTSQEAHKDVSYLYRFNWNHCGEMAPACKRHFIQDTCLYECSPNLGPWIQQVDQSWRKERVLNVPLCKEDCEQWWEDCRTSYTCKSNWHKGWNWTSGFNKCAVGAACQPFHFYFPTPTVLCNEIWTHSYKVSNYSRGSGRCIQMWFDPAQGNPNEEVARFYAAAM
Turning to B14, the EC50 was 0.28 nM.

As to B15, the EC50 was determined as 1 nM.
